From article PMC3467058 (Nucleic Acids Research, 2012)

Biological target: T1, Aeropyrum pernix aEF1α (residues 7-437), C-terminally His-tagged, wild type (Aeropyrum pernix, UniProt Q9YAV0 7-437)
T1 sequence: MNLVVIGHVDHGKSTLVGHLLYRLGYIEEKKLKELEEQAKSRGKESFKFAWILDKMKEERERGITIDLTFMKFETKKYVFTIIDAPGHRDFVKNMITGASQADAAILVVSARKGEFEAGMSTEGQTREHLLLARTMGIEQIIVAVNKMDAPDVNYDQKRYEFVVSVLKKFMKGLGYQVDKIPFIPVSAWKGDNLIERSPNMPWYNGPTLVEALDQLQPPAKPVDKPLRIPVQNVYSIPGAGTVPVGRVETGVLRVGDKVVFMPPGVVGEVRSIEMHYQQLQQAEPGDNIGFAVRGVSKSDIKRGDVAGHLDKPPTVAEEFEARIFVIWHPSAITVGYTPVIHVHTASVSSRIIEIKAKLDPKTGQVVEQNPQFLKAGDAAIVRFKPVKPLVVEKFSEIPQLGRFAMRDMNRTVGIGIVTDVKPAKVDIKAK
Test: pull-down

B1: archaeal RF1 (aRF1), archaeal class I release factor, Aeropyrum pernix (natural protein)
chain: MSQGRLEERLTISKRELARLLKELKKWSAPATVLLSLYIPPGRPLSDVMTLLRQEYSITDNIKLKRTRQAVKRALSAAMDRLQMLTSTPPNGLVLFCGEDMSTGKFECFMFSPPEPIRVFYYRTDKRFITDFLEDMVEDNNAIGIIIVERDQATIGLLKGARLEVLKELEGFVPGKHKMGGQSQRRYERIIEQMVDEFFKKVGEEASNLLVPLAEKGVLKGVIVAGPGLAKQEFVEGNYLDYRLKKILAPELVDVAYQGLQGLKEAVMKAEKVVEAQMYRDAVNAMEEFKLHLAKGTGMIVYGEKDVEAALEMGAVKTLLIHESREDLEEWVEKAKSSGAQVIVVPESLAEAEWFLKTFGGLAGILRFRISTV
binding result: binds
